The values below come from patent US20100021987.

The target of series [1] is 6xHis-hSUMO-3-X-eGFP, X = Y.
The target in series [2] is 6xHis-hSUMO-3-X-eGFP, X = W.
Series [3] has as its target 6xHis-hSUMO-3-X-eGFP, X = D.
The target of series [4] is 6xHis-hSUMO-3-X-eGFP, X = N.
The target in series [5] is 6xHis-hSUMO-3-X-eGFP, X = Q.
Series [6] deals with 6xHis-hSUMO-3-X-eGFP, X = L.
In series [7] the target is 6xHis-hSUMO-3-X-eGFP, X = F.
Series [8] deals with 6xHis-hSUMO-3-X-eGFP, X = E.
Series [9] concerns the target 6xHis-hSUMO-3-X-eGFP, X = I.
The target in series [10] is 6xHis-hSUMO-3-X-eGFP, X = H.
Series [11] addresses 6xHis-hSUMO-3-X-eGFP, X = P.
In series [12] the target is 6xHis-hSUMO-3-X-eGFP, X = R.
For series [13], the target named is 6xHis-hSUMO-3-X-eGFP, X = K.
For series [14], the target named is 6xHis-hSUMO-3-X-eGFP, X = C.
The target in series [15] is 6xHis-hSUMO-3-X-eGFP, X = A.
The target of series [16] is 6xHis-hSUMO-3-X-eGFP, X = G.
The target in series [17] is 6xHis-hSUMO-3-X-eGFP, X = V.
In series [18] the target is 6xHis-hSUMO-3-X-eGFP, X = S.
The target of series [19] is 6xHis-hSUMO-3-X-eGFP, X = T.

B1: Arabidopsis thalania ULP1c (AtULP1c) SUMO protease catalytic domain (protein)
chain: MVVEEACELPEGLPEDIYYPSSDQSDGRDLVQVSLKDLKCLSPGEYLTSPVINFYIRYVQHHVFSADKTAANCHFFNTFFYKKLTEAVSYKGNDRDAYFVKFRRWWKGFDLFCKSYIFIPIHEDLHWSLVIICIPDKEDESGLTIIHLDSLGLHPRNLIFNNVKRFLREEWNYLNQDAPLDLPISAKVWRDLPNMINEAEVQVPQQKNDFDCGLFLLFFIRRFIEEAPQRLTLQDLKMIHKKWFKPEEASALRIKIWNILVDLFRKGNQTDLEHHHHHH
In the case of B1, the “activity level (grade)” value with 6xHis-hSUMO-1-eGFP, in the series with 6xHis-ySmt3-eGFP, with 6xHis-AtSUMO1-eGFP, with 6xHis-T-SUMO-eGFP, with 6xHis-AtSUMO2-eGFP and with 6xHis-hSUMO-3-eGFP was “-” in each case. Moreover, the “cleavage, single enzyme concentration, SDS-PAGE” value with 6xHis-hSUMO-1-eGFP, in the series with 6xHis-ySmt3-eGFP, with 6xHis-AtSUMO1-eGFP, in the series with 6xHis-T-SUMO-eGFP, with 6xHis-AtSUMO2-eGFP and in the series with 6xHis-hSUMO-3-eGFP was “AtULP1c did not show activity against any of the SUMO fusions” in each case.

B2: human SENP1 (hSENP1) SUMO protease catalytic domain (protein)
chain: MASFPEITEEMEKEIKNVFRNGNQDEVLSEAFRLTITRKDIQTLNHLNWLNDEIINFYMNMLMERSKEKGLPSVHAFNTFFFTKLKTAGYQAVKRWTKKVDVFSVDILLVPIHLGVHWCLAVVDFRKKNITYYDSMGGINNEACRILLQYLKQESIDKKRKEFDTNGWQLFSKKSQIPQQMNGSDCGMFACKYADCITKDRPINFTQQHMPYFRKRMVWEILHRKLLEHHHHHH
Regarding B2, the “activity level (grade)” value with 6xHis-hSUMO-1-eGFP is “+/-”; with 6xHis-ySmt3-eGFP, “++”; with 6xHis-AtSUMO1-eGFP it was “+/-”; with 6xHis-T-SUMO-eGFP, “+/-”; with 6xHis-AtSUMO2-eGFP, “+/-”; in the series with 6xHis-hSUMO-3-eGFP, “+”. The “cleavage, single enzyme concentration, SDS-PAGE” value in the series with 6xHis-hSUMO-1-eGFP was “It also cleaved the other 4 fusions, but to a much lesser extent”; in the series with 6xHis-ySmt3-eGFP it was “hSENP1, which cleaved ySmt3 the best”; with 6xHis-AtSUMO1-eGFP, “It also cleaved the other 4 fusions, but to a much lesser extent”; with 6xHis-T-SUMO-eGFP it was “It also cleaved the other 4 fusions, but to a much lesser extent”; in the series with 6xHis-AtSUMO2-eGFP, “It also cleaved the other 4 fusions, but to a much lesser extent”; with 6xHis-hSUMO-3-eGFP, “cleaved ySmt3 the best, followed by hSUMO-3”.

B3: Saccharomyces cerevisiae Ulp1 SUMO protease catalytic domain (protein)
chain: MGLVPELNEKDDDQVQKALASRENTQLMNRDNIEITVRDFKTLAPRRWLNDTIIEFFMKYIEKSTPNTVAFNSFFYTNLSERGYQGVRRWMKRKKTQIDKLDKIFTPINLNQSHWALGIIDLKKKTIGYVDSLSNGPNAMSFAILTDLQKYVMEESKHTIGEDFDLIHLDCPQQPNGYDCGIYVCMNTLYGSADAPLDFDYKDAIRMRRFIAHLILTDALKLEHHHHHH
As for B3, the Percent cleavage, enzyme:substrate 1:100 in series [1] came to 96.9%; in [2], 89.7%; in series [3] it was 92.3%; in series [4] it was 97.9%; in series [5], 65.5%; in [6], 4.4%. For the same protein, the Percent cleavage, enzyme:substrate 1:100 stood at 95.4% in [7]; 80.1% in [8]; 1.9% in series [9]; 90.8% in [10]; 0% in series [11]; 96.6% in series [12]. For the same protein, the Percent cleavage, enzyme:substrate 1:100 with 6xHis-hSUMO-3-eGFP stood at 98.3%; in [13] it was 22.4%; in series [14], 98.4%; in [15], 96.3%; in series [16], 96.5%; in [17], 20.2%. Also, the Percent cleavage, enzyme:substrate 1:100 in [18] amounted to 98.2%; in series [19], 95.8%. Also, the Percent cleavage, enzyme:substrate 1:1000 in series [1] was 16.9%; in series [2] it was 16.8%; in [3], 3.3%; in series [4] it was 16.9%; in series [5] it was 3.7%; in [6], 0%. The Percent cleavage, enzyme:substrate 1:1000 in series [7] amounted to 27%; in series [8] it was 11.3%; in series [9], 0%; in [10], 25.5%; in [11], 0%; in series [12], 17.2%. Also, the Percent cleavage, enzyme:substrate 1:1000 was 18.4% with 6xHis-hSUMO-3-eGFP; 0% in series [13]; 25.3% in series [14]; 27.1% in series [15]; 27% in series [16]; 4% in series [17]. The values for the Percent cleavage, enzyme:substrate 1:1000 in series [18] and in [19] were 16.7% and 14.3%, respectively. In addition, the “activity level (grade)” value with 6xHis-hSUMO-1-eGFP is “+”; in the series with 6xHis-ySmt3-eGFP it was “++++”; with 6xHis-AtSUMO1-eGFP, “++”; with 6xHis-T-SUMO-eGFP it was “++”; with 6xHis-AtSUMO2-eGFP, “++”; with 6xHis-hSUMO-3-eGFP, “+”. Moreover, the “cleavage, time course, SDS-PAGE” value with 6xHis-hSUMO-1-eGFP was “both enzymes cleaving hSUMO-1-eGFP poorly”; with 6xHis-ySmt3-eGFP, “both enzymes cleaving hSUMO-1-eGFP poorly and ySmt3-eGFP well”; with 6xHis-AtSUMO1-eGFP, “cleaving not only T-SUMO but also AtSUMO1 and AtSUMO2 significantly better than did hSENP2”; with 6xHis-T-SUMO-eGFP, “cleaving not only T-SUMO but also AtSUMO1 and AtSUMO2 significantly better than did hSENP2”; with 6xHis-AtSUMO2-eGFP, “cleaving not only T-SUMO but also AtSUMO1 and AtSUMO2 significantly better than did hSENP2”; with 6xHis-hSUMO-3-eGFP, “yUlp1 was able to cleave apparently less than half of the substrate in 4 hrs”. Moreover, the Kcat result with 6xHis-ySmt3-eGFP is “Kcat = 0.40”; in the series with 6xHis-hSUMO-3-eGFP, “Kcat = 0.027”. The Km result is reported as “Km = 4.5 mM” with 6xHis-ySmt3-eGFP and “Km = 15.8 mM” with 6xHis-hSUMO-3-eGFP. The “cleavage, 2-fold enzyme dilution series, SDS-PAGE” value is “Both hSENP2 and yUlp1 cleaved the AtSUMO1 fusion similarly” with 6xHis-AtSUMO1-eGFP; “yUlp1 had a distinct advantage in the cleavage of T-SUMO-eGFP” with 6xHis-T-SUMO-eGFP; “a slight advantage in the cleavage of AtSUMO2-eGFP” in the series with 6xHis-AtSUMO2-eGFP.

B4: human SENP6 (hSENP6) SUMO protease catalytic domain (protein)
chain: MGENHTIFIGPVEKLIVYPPPPAKGGISVTNEDLHCLNEGEFLNDVIIDFYLKYLVLEKLKKEDADRIHIFSSFFYKRLNQRERRNHETTNLSIQQKRHGRVKTWTRHVDIFEKDFIFVPLNEAAHWFLAVVCFPGLEKPKYEPNPHYHENAVIQKCSTVEDSCISSSASEMESCSQNSSAKPVIKKMLNKKHCIAVIDSNPGQEESDPRYKRNICSVKYSVKKINHTASENEEFNKGESTSQKVADRTKSENGLQNESLSSTHHTDGLSKIRLNYSDESPEAGKMLEDELVDFSEDQDNQDDSSDDGFLADDNCSSEIGQWHLKPTICKQPCILLMDSLRGPSRSNVVKILREYLEVEWEVKKGSKRSFSKDVMKGSNPKVPQQNNFSDCGVYVLQYVESFFENPILSFELPMNLANWFPPPRMRTKREEIRNIILKLQEDQSKEKRKHKDTYSTEAPLGEGTEQYVNSISDLEHHHHHH
On to B4, for which the “activity level (grade)” value in the series with 6xHis-hSUMO-1-eGFP is given as “-”; with 6xHis-ySmt3-eGFP it was “-”; with 6xHis-AtSUMO1-eGFP it was “-”; in the series with 6xHis-T-SUMO-eGFP it was “-”; with 6xHis-AtSUMO2-eGFP, “-”; in the series with 6xHis-hSUMO-3-eGFP, “+/-”. Further, the “cleavage, single enzyme concentration, SDS-PAGE” value in the series with 6xHis-hSUMO-1-eGFP is “did not digest the others at the incubation time and enzyme concentration used”; with 6xHis-ySmt3-eGFP, “did not digest the others at the incubation time and enzyme concentration used”; with 6xHis-AtSUMO1-eGFP, “did not digest the others at the incubation time and enzyme concentration used”; with 6xHis-T-SUMO-eGFP it was “did not digest the others at the incubation time and enzyme concentration used”; with 6xHis-AtSUMO2-eGFP, “did not digest the others at the incubation time and enzyme concentration used”; with 6xHis-hSUMO-3-eGFP, “demonstrated partial cleavage of hSUMO-3-eGFP”.
